Results taken from PMC4454200.

Biological target: Full-length mouse melanocyte-type myosin-5a (Myo5a-FL) (mouse) (UniProt Q99104)
Sequence (Q99104 whole entry): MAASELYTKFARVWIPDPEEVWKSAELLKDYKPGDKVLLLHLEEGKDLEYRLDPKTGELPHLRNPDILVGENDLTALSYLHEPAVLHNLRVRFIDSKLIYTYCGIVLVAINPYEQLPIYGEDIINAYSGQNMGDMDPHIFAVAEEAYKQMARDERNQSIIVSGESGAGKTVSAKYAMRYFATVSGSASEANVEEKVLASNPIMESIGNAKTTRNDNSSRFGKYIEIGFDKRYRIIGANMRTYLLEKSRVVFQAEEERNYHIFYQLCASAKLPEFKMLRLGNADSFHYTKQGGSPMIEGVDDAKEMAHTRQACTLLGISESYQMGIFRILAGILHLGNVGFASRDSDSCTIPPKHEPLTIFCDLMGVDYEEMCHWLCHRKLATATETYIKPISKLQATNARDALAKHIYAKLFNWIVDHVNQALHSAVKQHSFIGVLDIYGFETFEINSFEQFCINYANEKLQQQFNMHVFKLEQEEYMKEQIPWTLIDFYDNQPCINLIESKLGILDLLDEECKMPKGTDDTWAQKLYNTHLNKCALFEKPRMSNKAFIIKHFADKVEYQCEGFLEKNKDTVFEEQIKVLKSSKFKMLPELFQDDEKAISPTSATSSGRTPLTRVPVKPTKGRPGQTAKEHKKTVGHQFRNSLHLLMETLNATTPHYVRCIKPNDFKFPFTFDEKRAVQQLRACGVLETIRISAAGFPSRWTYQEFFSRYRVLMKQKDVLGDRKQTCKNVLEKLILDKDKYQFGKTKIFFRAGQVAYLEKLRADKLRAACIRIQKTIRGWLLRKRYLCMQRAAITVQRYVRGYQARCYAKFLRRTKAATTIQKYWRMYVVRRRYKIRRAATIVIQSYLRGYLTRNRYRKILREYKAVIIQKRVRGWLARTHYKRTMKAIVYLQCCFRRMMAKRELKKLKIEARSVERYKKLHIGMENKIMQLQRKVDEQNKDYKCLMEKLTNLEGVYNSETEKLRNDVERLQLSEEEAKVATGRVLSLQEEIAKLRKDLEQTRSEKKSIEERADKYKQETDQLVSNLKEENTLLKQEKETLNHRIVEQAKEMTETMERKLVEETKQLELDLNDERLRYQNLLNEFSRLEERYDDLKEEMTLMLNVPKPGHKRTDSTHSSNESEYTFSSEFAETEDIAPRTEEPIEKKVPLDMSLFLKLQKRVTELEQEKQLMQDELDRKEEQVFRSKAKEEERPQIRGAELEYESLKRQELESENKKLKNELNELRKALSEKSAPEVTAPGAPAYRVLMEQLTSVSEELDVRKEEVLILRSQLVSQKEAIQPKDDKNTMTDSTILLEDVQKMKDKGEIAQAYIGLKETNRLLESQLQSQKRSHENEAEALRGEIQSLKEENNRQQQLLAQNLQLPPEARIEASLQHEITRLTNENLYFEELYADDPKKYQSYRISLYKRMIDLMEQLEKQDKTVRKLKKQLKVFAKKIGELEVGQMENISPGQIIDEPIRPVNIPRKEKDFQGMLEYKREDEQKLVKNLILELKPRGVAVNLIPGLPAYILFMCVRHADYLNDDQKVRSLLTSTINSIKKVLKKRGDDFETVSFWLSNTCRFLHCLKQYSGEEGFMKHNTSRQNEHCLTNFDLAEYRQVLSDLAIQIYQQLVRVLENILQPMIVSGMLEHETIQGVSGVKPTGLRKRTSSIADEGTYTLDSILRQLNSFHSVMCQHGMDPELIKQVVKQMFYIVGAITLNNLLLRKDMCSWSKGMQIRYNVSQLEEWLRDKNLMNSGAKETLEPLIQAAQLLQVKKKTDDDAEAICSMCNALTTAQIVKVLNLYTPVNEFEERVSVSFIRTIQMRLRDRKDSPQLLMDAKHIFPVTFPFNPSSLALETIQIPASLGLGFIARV

stimulation of the actin-activated ATPase activity of Myo5a-FL by Mlph-GTBDP (EGTA conditions, 40 uM actin), hyperbolic fit: apparent Kd: 19.8 µM
Binder: RDQPLNSKKKKRLLSFRDVDFEEDSDY [Mlph-GTBDP, 26-residue Myo5a-GTD binding peptide of melanophilin with a C-terminal tyrosine]
